System: purified MrpC

N-terminal histidine-tagged MazF-mx (H-MazF)
gel-shift assay of MrpC on the mazF-mx promoter (PmazF) after preincubation with H-MazF: Binding of MrpC to the promoter region was found to be inhibited when MrpC was preincubated with MazF-mx
